One molecule from paper PMC8715211 can be followed below.

The Kd is the free concentration of one partner at which half of the binding sites on the other are occupied at equilibrium, for simple one-to-one binding. Low readings indicate tighter binding, high ones weaker binding.

The data set has as its target HIV-1 matrix MA1-131 (HIV-1, UniProt C1JB69 2-132). Kind of data set: ITC. Background: Isothermal titration calorimetry measures the heat released or taken up as one component is titrated into another.

B1: human tRNALys3, in vitro transcribed (structured_RNA)
RNA: GCCCGGAUAGCUCAGUCGGUAGAGCAUCAGACUUUUAAUCUGAGGGUCCAGGGUUCAAGUCCCUGUUCGGGCGCCA
modifications: unmodified transcript
Molecule B1 returned a dissociation constant (Kd) of 270 ± 20 nM.
